Measured values reported in article PMC11055677 (Cell, 2024).

T1: C1orf109, untagged, of the purified C1orf109-CINP sub-complex (human, UniProt Q9NX04 1-203)
T1 sequence (looked up): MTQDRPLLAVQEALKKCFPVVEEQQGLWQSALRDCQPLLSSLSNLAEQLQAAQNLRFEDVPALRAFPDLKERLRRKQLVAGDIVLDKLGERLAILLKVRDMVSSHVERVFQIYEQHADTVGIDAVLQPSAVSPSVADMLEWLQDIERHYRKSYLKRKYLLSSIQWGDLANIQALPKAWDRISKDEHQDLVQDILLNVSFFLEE

B1: C1orf109, full-length wild type, subunit of the reconstituted 55LCC complex (natural protein, human, UniProt Q9NX04 1-203, looked up)
chain: T1 sequence (looked up)
B2: SPATA5, full-length wild type, subunit of the reconstituted 55LCC complex (enzyme, human, UniProt Q8NB90 1-893, looked up)
chain: MSSKKNRKRLNQSAENGSSLPSAASSCAEARAPSAGSDFAATSGTLTVTNLLEKVDDKIPKTFQNSLIHLGLNTMKSANICIGRPVLLTSLNGKQEVYTAWPMAGFPGGKVGLSEMAQKNVGVRPGDAIQVQPLVGAVLQAEEMDVALSDKDMEINEEELTGCILRKLDGKIVLPGNFLYCTFYGRPYKLQVLRVKGADGMILGGPQSDSDTDAQRMAFEQSSMETSSLELSLQLSQLDLEDTQIPTSRSTPYKPIDDRITNKASDVLLDVTQSPGDGSGLMLEEVTGLKCNFESAREGNEQLTEEERLLKFSIGAKCNTDTFYFISSTTRVNFTEIDKNSKEQDNQFKVTYDMIGGLSSQLKAIREIIELPLKQPELFKSYGIPAPRGVLLYGPPGTGKTMIARAVANEVGAYVSVINGPEIISKFYGETEAKLRQIFAEATLRHPSIIFIDELDALCPKREGAQNEVEKRVVASLLTLMDGIGSEVSEGQVLVLGATNRPHALDAALRRPGRFDKEIEIGVPNAQDRLDILQKLLRRVPHLLTEAELLQLANSAHGYVGADLKVLCNEAGLCALRRILKKQPNLPDVKVAGLVKITLKDFLQAMNDIRPSAMREIAIDVPNVSWSDIGGLESIKLKLEQAVEWPLKHPESFIRMGIQPPKGVLLYGPPGCSKTMIAKALANESGLNFLAIKGPELMNKYVGESERAVRETFRKARAVAPSIIFFDELDALAVERGSSLGAGNVADRVLAQLLTEMDGIEQLKDVTILAATNRPDRIDKALMRPGRIDRIIYVPLPDAATRREIFKLQFHSMPVSNEVDLDELILQTDAYSGAEIVAVCREAALLALEEDIQANLIMKRHFTQALSTVTPRIPESLRRFYEDYQEKSGLHTL
B3: CINP, full-length wild type, subunit of the reconstituted 55LCC complex (natural protein, human, UniProt Q9BW66 1-212, looked up)
chain: MEAKTLGTVTPRKPVLSVSARKIKDNAADWHNLILKWETLNDAGFTTANNIANLKISLLNKDKIELDSSSPASKENEEKVCLEYNEELEKLCEELQATLDGLTKIQVKMEKLSSTTKGICELENYHYGEESKRPPLFHTWPTTHFYEVSHKLLEMYRKELLLKRTVAKELAHTGDPDLTLSYLSMWLHQPYVESDSRLHLESMLLETGHRAL
B4: CINP, untagged, of the purified C1orf109-CINP sub-complex (natural protein, human, UniProt Q9BW66 1-212, looked up)
chain: B3 chain

Assays:
[1] = molecular target: B3; assay: cryo-EM structure; reconstituted 55LCC incubated with 5 mM ATPγS, 0.01% fluorinated octyl maltoside; AlphaFold 2 models rigid-body fitted into the composite map; settings: both partners purified
[2] = molecular target: the molecule itself; assay: as above
[3] = molecular target: B2; assay: mass photometry; reconstituted 55LCC, 120 nM final, 25 mM Tris pH 7.5, 400 mM NaCl, with 2 mM ADP or after addition of 5 mM ATPγS (more of the 55LCC peak with ATPγS); settings: both partners purified
[4] = molecular target: T1, C1orf109, untagged, of the purified …; assay: native MS; untagged proteins in 500 mM ammonium acetate; 12 μM C1orf109, 20 μM CINP, 20 μM C1orf109-CINP complex; settings: both partners purified

Binder: B1
- binding result [1]: binds

Binder: B2
- binding result [2]: binds

Binder: B3
- binding result [3]: binds

Binder: B4
- stoichiometry N [4]: 1
